The record followed here is publication PMC12103068.

Substrate in the data set: CC(=O)Oc1cccc2ccccc12
In words: purified protein. The data set is classed as biochemical, Aspergillus oryzae. The conditions noted are these: 50 mM sodium phosphate pH 8.0, 30 °C (general assay conditions).

B1: AoAxeB (Aspergillus oryzae RIB40) (protein)
chain: AGSAGCGQPLPPSQNPGGSSYGVNFTLSAGTQRFYRIHIPSNYNVNTPTPLIFSFHGRGKTAESQEKLSQFSNEDWNPDAIAVYPQGLNKEWQGDPHSKDVDDIAFTMEMLDYFQEKFCIDSTRVYAAGKSNGGGFTNLLACDPTASTRIAAFAPVSGAYYQDVSEEACHPTTVPIKCSPGRPSIPILEFHGTADKTIPYGGGGRRGECLPSIPHFVREWSKRLGYGLHNTTKELYDGNVQEYQYGNGDNRGIVTHYRIGGLGHDWPSVRPNSDNPNGTYLDATPIIVKFFKQWVLPGSSEDNQSEAR
For orientation: Km means the concentration of substrate that gives half-maximal velocity. Usually kcat stands for the maximal rate divided by the concentration of active sites. Take B1: the Michaelis-Menten constant (Km) was 240 ± 120 µM and the kcat was 0.17 ± 0.03 s⁻¹.
